Laboratory results taken from the RNAGym collection of RNA variant scans (doi:10.7554/elife.90254).

B1: LINE1-full (parent)
chain: UACGUAGGUGGUUUUCCCCUGAUAGUGCUAAGGGGGCCUGGAAGUUUGGACUGGGCAGAGCUCAACACAGCGUGGCAAAGUGGCUGUGGCUAGACUGCCUCUCUGGAUUCCUCGUCACUCAGCAGGGCAUCUCUGAGAGAAAUGCC

Variants of: B1
Assay: self-cleavage, relative activity (ratio to wild type); higher = more cleavage; in vitro, sequencing; the parent is a self-cleaving ribozyme

Variant | self-cleavage
G105U U115A | 1.72
A79G A117U | 1.06
U39C U47C | 1.91
A64U G80U | 0.47
U23C U115C | 1.16
G53A G135U | 0.82
A117U U143C | 1.43
U47C A121G | 1.92
G70U U130C | 0.08
G8A U143C | 1.45
U23A U100A | 0.86
G105A A129C | 2.69
A31G A121G | 1.24
C38U G144A | 1.36
U15A A30G | 1.16
C19A U109A | 1.58
A50U A129U | 1.12
G8U C37G | 1.18
G89C G144A | 0.05
U100C A136U | 1.73
A43G U100C | 1.65
U45G U46C | 1.31
U29C G70U | 0.01
G48A G49U | 0.57

Variant | self-cleavage
U132A A141G | 1.58
U23C A50G | 1.34
U45C C71A | 0.15
C84A U108A | 0.12
U81C U87C | 0.4
G8A U81C | 1.25
A79G C98U | 0.45
G40A U119A | 0.94
U29C G36A | 1.63
G35U U102A | 1.8
U20A U46A | 0.96
G126A A138U | 1.33
U46A A57U | 0.08
C68G A141G | 0.04
U12C U102A | 1.66
G49A U96C | 0.03
U91C C110U | 0.66
U1A A78C | 1.65
G53A A77G | 1.82
A22G U119A | 2.19
A57G U85G | 0.23
A138G G144A | 0.14
C71U U81A | 0.88
U45G G97A | 0.07

Variant | self-cleavage
C18A G34A | 1.01
U108C C110A | 1.49
G105U U119C | 1.92
U12C A92U | 0.56
A77G U109A | 1.75
C71U A124G | 0.28
U100C U104C | 2.14
U102C U130A | 2.21
U13A C128U | 1.61
U143C C146U | 1.51
U20A G25A | 0.37
U13G C76U | 1.47
A31G A65G | 0
C56U U87C | 0.11
C51U C90A | 0.01
G21U G127A | 1.99
A2G U132G | 1.6
C19U U102C | 0.73
U15C A77U | 1.39
A24U A77U | 0.93
U39A U143A | 1.37
A57U A142G | 0.12
U12C G33C | 1.28
C123G A124G | 0.74

Variant | self-cleavage
U47C U108G | 1.41
A64G G89U | 0
U13A A50G | 0.76
A22G G106U | 0.73
A22G U26G | 0.75
U39A U85A | 0.11
A77G U81C | 2.1
C37U A79G | 1.1
C110A U112C | 1.56
U12C U108A | 1.25
C76U U102C | 0.59
A77G A92G | 0.2
U23C U132C | 1.58
U39A A42G | 1.21
A138G C145A | 2.76
G11A G49U | 1.35
U29C G60A | 0.02
A69G C95U | 0.06
G32U U45A | 1.17
G88A U96A | 0.03
U46C A50U | 1.26
A6U G126A | 1.8
U100A A142G | 0.77
G40U U100C | 0.46

Variant | self-cleavage
U14C A92G | 0.14
U13C A78U | 1.81
A6G A59G | 0.1
C61G A124U | 0.11
A42G U52A | 1.52
A22U A129U | 1.47
G36C A77G | 1.6
U85C G137A | 0.2
C66U U134C | 0.06
U13C U91A | 0.85
G41U A117U | 1.24
A77U U115A | 0.82
A50C C116U | 1.34
U108C C120A | 1.45
U29C U62C | 0.15
U12C C28U | 0.74
U15C G70A | 0.33
A59U U108C | 1.09
U23A | 1.3
C19U A22U | 1.11
U39A A136U | 1.52
A6U G137A | 1.53
A50G U112C | 0.73
U12G G93A | 0

Variant | self-cleavage
U20A G41U | 0.96
U12C C68U | 0.35
U39G U81A | 1.62
U100C A107G | 1.73
U29C A67U | 0.12
U87A U134C | 0.1
A57C A92U | 0
A2G A136G | 0.82
C51U A65G | 0.05
U46C U85G | 0.37
C103G | 1.25
A57G U130C | 1.3
U20A U39A | 0.84
A138G A140C | 1.8
U62C C111U | 0.02
U104A A141C | 0.47
A43G A69C | 0.13
A24G A141U | 1.41
A64G A129U | 0.25
U13C G35A | 1.13
A78G A117C | 1.69
A78G U112A | 0.7
G54U U96C | 0.07
G60U A121C | 0.03

Variant | self-cleavage
U9G U130A | 0.78
G106A U132G | 1.67
U119A A136U | 1.3
G35U A77U | 1.31
A64C A79G | 0.28
U13C G33U | 1.64
G4C A140G | 1.19
U1C G7U | 0.75
U14C A59U | 0.88
C18A U119C | 1.49
G70A A124C | 0.21
C38U A67G | 0.42
U9G A67G | 0.37
G4A G10A | 1.21
A30U A43C | 1.57
U12G U108G | 0.82
G72U U73A | 1.33
U62A A141U | 0.01
A94G C116U | 0.28
A92G A136G | 0.08
A64U A140G | 0.39
A94U U100C | 0.33
G40A U109C | 0.88
G126A G127U | 1.44

Variant | self-cleavage
U39C C128U | 1.16
G48A A141G | 1.42
G41A A138G | 1.25
U62C A78G | 0.05
U46C U100C | 1.89
A2G C37U | 0.89
A22U A121C | 1.27
A92G C131G | 0.22
A77G C84U | 0.25
A64U G122A | 0.54
A64U U134A | 0.16
U52A | 1.34
U52G | 1.45
U73C G105U | 1.32
A42U U52A | 1.2
U13C A43C | 0.84
A92C G93U | 0.06
A69U G89U | 0.02
C51U U102C | 0.41
U62A A64C | 0.11
U5C A142G | 1.15
U100A A129U | 1.25
U39C A136G | 1.43
G48A C63U | 0.36

Variant | self-cleavage
U109A A117G | 1.42
A22U A136G | 1.13
A57G A129G | 0.74
U14C C113U | 0.82
U26A C99A | 0.09
U9G A42G | 1.4
U108A A142G | 1.55
U26C G58U | 0.04
A42G U85C | 0.38
G4U U20C | 1.33
U1C A79U | 2.16
U14C U73C | 1.62
U12C C18G | 2.1
C68U U109A | 0.21
U46C U119C | 1.13
C19G U62A | 0.03
U45G U119G | 0.44
C38U A64G | 0.17
U15C A64C | 0.64
C61U A94G | 0.06
C17U U143G | 1.43
A22U U46C | 1.34
A30U C90G | 0.09
C3U U143C | 0.62

Variant | self-cleavage
A65G U100C | 0.06
G11A U12C | 0.33
A79G G144A | 1.5
U115G A136G | 1.53
G97A U143C | 0.16
A42G U96A | 0.03
U20C A121U | 1.44
U9A G89A | 0.1
A2G U102C | 1.2
A92G U100C | 0.14
G35A G36C | 1.05
A57C A77U | 0.08
U14C U104C | 1.51
U20A A50G | 1.2
U26C C63U | 0.66
U85G A138G | 0.22
U115A A142U | 1.38
A22G U112C | 1.25
A59U G60A | 0.05
G27A A140U | 1.28
U102C G122A | 1.66
A42G G72U | 1.38
A43G G74A | 1.17
U9G U45C | 0.25

Variant | self-cleavage
U26A C76A | 1.51
C38U A140G | 1.24
A6U G32U | 0.54
A43G A142C | 1
G11A U46C | 0.94
U108C U115C | 1.86
A50G A141G | 1
G8U U130C | 1.66
U104C A129C | 2.1
C71U A77U | 0.7
A59U A107G | 1.96
C3U A69G | 0.53
A67G U143G | 0.37
U96A G122C | 0.07
A22G U96C | 0.2
A24G U46C | 1.74
A22U U52C | 1.73
U96A U134A | 0.08
A57U G58U | 0.04
A57U G88A | 0.04
C37A U39C | 1.35
G86A A140U | 0.09
A65G A117G | 0.08
A2C A107G | 1.15

Variant | self-cleavage
U108A A136U | 1.24
U91G | 0.04
A59G A79U | 0.07
U23C C99U | 0.91
U1A G33U | 0.96
U119A A129U | 1.37
G27C U112G | 1.11
U23C C51A | 0.98
U109A G126A | 1.34
U52G U73A | 1.74
C19U G34A | 0.75
G83C A94G | 0.17
U26A U102G | 0.38
U13G G114A | 0.64
A79C U87A | 0.18
A42U A94U | 0.15
A57U A121U | 0.12
U81A U134A | 2.49
U73A G82U | 1.65
U9C U104C | 1.82
U1G G114C | 0.52
C71A A140G | 0.23
A92G U132A | 0.05
U112C C128U | 1.35

Variant | self-cleavage
A42G A78G | 1.49
U1A U87A | 0.13
U12A A69G | 0.42
A59U U104C | 1.02
U13A U132G | 0.6
U15A U46G | 0.85
U46G U91C | 0.74
C19A U100C | 0.9
U112C G125A | 1.6
U14C C68A | 0.09
A92G A117U | 0.08
G41U A64G | 0.16
G4C U87C | 0.74
G70A U115G | 0.11
U5C A6G | 0.65
A117U U134A | 1.54
A79G U96G | 0.16
U85G A142G | 0.1
A22G A136C | 1.49
G74U A141G | 1.68
A2C A31G | 1.34
A24G A57G | 1.14
U23C A31G | 0.85
A2G G93A | 0.1

Variant | self-cleavage
U1A U132A | 1.35
C66U A124G | 0.03
A78G A136G | 1.45
U46A A107G | 1.43
C71U C146U | 0.66
U9C G93A | 0.05
C3G A78G | 0.6
U45A U102A | 1.36
U13G U45C | 0.78
G33A U52A | 0.53
G58A U62C | 0.08
A30U A136G | 1.4
G53U U143C | 1.14
U47C A64U | 0.52
G54A U102C | 0.33
C116U A141G | 1.42
A6G A30G | 1.14
U1C U26C | 0.64
G72A C120U | 1.31
G8A A65G | 0
G34U U108C | 1.56
U13C U85A | 0.13
